From patent US20150284450A1, “COMBINATION THERAPIES USING ANTI-PSEUDOMONAS PSL AND PCRV BINDING MOLECULES” (priority 2012, published 2015)

Experiments:
[1] = tested on: P. aeruginosa 6077 (exoU+); experiment: Rabbit red blood cell lysis inhibition assay with strain 6077; type: cell-based, Pseudomonas aeruginosa; conditions: FIG. 12F
Method: Percent inhibition of cytotoxicity analysis was analysed for the parental V2L2 mAb, mAb166 (positive control) and R347 (negative control), where the antibodies were administered to cultured broncho-epithelial cell line A549 combined with log-phase P. aeruginosa strain 6077 (exoU+) at a MOI of approximately 10. A549 lysis was assayed by measuring released lactate dehydrogenase (LDH) activity and lysis in the presence of mAbs was compared to wells without mAb to determine percent inhibition. The V2L2 mAb, mAb166 (positive control) and R347 (negative control) were evaluated for their ability to prevent lysis of RBCs, where the antibodies were mixed with log-phase P. aeruginosa 6077 (exoU^+) and washed rabbit red blood cells (RBCs) and incubated for 2 hours at 37°. Intact RBCs were pelleted and the extent of lysis determined by measuring the OD405 of the cell-free supernatant. Lysis in the presence of anti-PcrV mAbs was compared to wells without mAb to determine percent inhibition.

P. aeruginosa 6294 (O6) = experiment: Acute pneumonia model in mice, strain 6294; type: in vivo, Pseudomonas aeruginosa; conditions: for Overall Impression, lung histology: BALB/c mice
Method: (§1) Antibodies or PBS were administered 24 hours before infection in each model. P. aeruginosa acute pneumonia, keratitis, and thermal injury infection models were performed as described (DiGiandomenico, A., et al., Proc Natl Acad Sci USA 104, 4624-4629 (2007)), with modifications. In the acute pneumonia model, BALB/c mice (The Jackson Laboratory) were infected with P. aeruginosa strains suspended in a 0.05 ml inoculum. In the thermal injury model, CF-1 mice (Charles River) received a 10% total body surface area burn with a metal brand heated to 92° C. for 10 seconds. Animals were infected subcutaneously with P. aeruginosa strain 6077 at the indicated dose. For organ burden experiments, acute pneumonia was induced in mice followed by harvesting of lungs, spleens, and kidneys 24 hours post-infection for determination of CFU.

[2] = tested on: P. aeruginosa 6077 (O11, cytotoxic); experiment: Acute pneumonia model in mice, strain 6077; type: in vivo, Pseudomonas aeruginosa; conditions: IP 24 h prior to intranasal 6077 (1×10^6 CFU/animal); FIG. 13E-G
Method: as §1

[3] = tested on: P. aeruginosa 6206 (O11-ExoU+); experiment: Acute pneumonia model in mice, strain 6206; type: in vivo, Pseudomonas aeruginosa
Method: as §1

[4] = tested on: P. aeruginosa PA103A (O11); experiment: Acute pneumonia model in mice, strain PA103A; type: in vivo, Pseudomonas aeruginosa; conditions: V2L2 0.04-5 mg/kg, FIG. 13I
Method: as §1
The in vivo effect of administration of an anti-PcrV antibodies was studied in mice using an acute pneumonia model. Groups of mice were treated with either increasing concentrations of the V2L2 antibody, a positive control anti-PcrV antibody (mAb166), or a negative control (R347), as shown in FIG. 13 (A-B). Groups of mice were also treated with either increasing concentrations of the V2L2 antibody, the PcrV antibody PcrV-02, or a negative control (R347), as shown in FIG. 13 (C-D). […]

[5] = 1.33×10^7 CFU 6294, 0.2 mg/kg (combination 0.1 mg/kg ea), Table 6A
[6] = 1.7×10^7 CFU 6294, 0.2 mg/kg (combination 0.1 mg/kg ea), Table 6B
[7] = 5.25×10^5 cfu 6206, single antibody: R347 2.1 mg/kg, V2L2 0.1 mg/kg, WapR-004 0.5 mg/kg, Table 5
[8] = 9.25×10^5 CFU 6206, 0.2 mg/kg (combination 0.1 mg/kg ea), Table 7
[9] = V2L2 0.07-5 mg/kg, intranasal 6206, FIG. 14A-B

B1: V2L2: anti-PcrV monoclonal antibody, epitope class 4; VH SEQ ID NO: 216, VL SEQ ID NO: 217 (antibody, V domains shown)
VH: EMQLLESGGGLVQPGGSLRLSCAASGFTFSSYAMNWVRQAPGEGLEWVSAITISGITAYYTDSVKGRFTISRDNSKNTLYLQMNSLRAGDTAVYYCAKEEFLPGTHYYYGMDVWGQGTTVTVSS
VL: AIQMTQSPSSLSASVGDRVTITCRASQGIRNDLGWYQQKPGKAPKLVIYSASTLQSGVPSRFSGSGSGTDFTLSISSLQPDDFATYYCLQDYNYPWTFGQGTKVEIK
modifications: V2L2 VH; V2L2 VL
- potency in prevention of RBC lysis, V2L2 vs. 29D2 [1]: more potent in prevention of RBC lysis than the 29D2
- protection compared to mAb166 at similar doses (P. aeruginosa 6294 (O6); 1 mg/kg, strain 6294, FIG. 13B): significantly more potent protection than mAb166
- Bacteria (P. aeruginosa 6294 (O6); [5]): Neg-1+
- Hemorrhage, extent in words (P. aeruginosa 6294 (O6); [5]): Extensive
- Inflammatory Infiltrate (P. aeruginosa 6294 (O6); [5]): PMN 3+
- Involved Lung Surface Area (P. aeruginosa 6294 (O6); [5]): 57%
- Bacteria (P. aeruginosa 6294 (O6); [6]): Neg
- Inflammatory Infiltrate (P. aeruginosa 6294 (O6); [6]): PMN 2+
- Involved Lung Surface Area (P. aeruginosa 6294 (O6); 1.7×10^7 CFU 6294, 0.2 mg/kg, Table 6B): 30%
- protection against additional strains (P. aeruginosa 6294 (O6); 6294, V2L2 0.04-5 mg/kg, FIG. 13I): protects against additional Pseudomonas strains
- Overall Impression, lung histology (P. aeruginosa 6294 (O6); [5]): Broncho interstitial pneumonia
- Overall Impression, lung histology (P. aeruginosa 6294 (O6); [6]): Broncho interstitial pneumonia
- effect on survival (P. aeruginosa 6294 (O6); increasing doses of V2L2 24 h before infection, out to 168 hours post-infection, FIG. 13): dose-dependent effect on improved survival
- protection in vivo (survival) [2]: provides protection in vivo
- reduction in organ CFU compared to mAb166 at similar doses ([3]; 1 mg/kg, lung, FIG. 14B): significantly greater reduction in organ CFU than mAb166
- organ burden / tissue clearance (lung, spleen, kidney CFU) ([3]; 5.25×10^5 cfu 6206, V2L2 0.1 mg/kg, W4-RAD 0.5 mg/kg, combination, 24 h post infection, FIG. 15): effective in lowering organ burden
- Inflammatory Infiltrate [3, 7]: PMN 3+
- Involved Lung Surface Area [3, 7]: 55%
- Overall Impression, lung histology [3, 7]: Broncho interstitial pneumonia
- Inflammatory Infiltrate [3, 8]: PMN 2-3+
- Involved Lung Surface Area [3, 8]: 40%
- survival, in words ([3]; 6206, Bs3-V2L2 0.28 mg/kg, V2L2 0.2 mg/kg 24 h before infection, monitored 120 hours, FIG. 21A): survived, along with those which received the V2L2 control
- Overall Impression, lung histology ([3]; BALB/c mice, 9.25×10^5 CFU 6206, 0.2 mg/kg (combination 0.1 mg/kg ea), Table 7): Broncho interstitial pneumonia
- clearance in the kidney [3, 9]: little effect on clearance in the kidney
- dissemination to lung and spleen [3, 9]: greatly reduced dissemination to both the lung and spleen in a dose-dependent manner
- protection against additional strains [4]: protects against additional Pseudomonas strains
